Bridge positions count the residues as written; N and C are the ends. Square brackets hold non-standard residues; d marks the D form. Pra = C#CC[C@H](N)C(=O)O
Tests used:
[1] = target: T1, APC/C (APC11) (Homo sapiens, UniProt Q9NYG5); assay: Pull-down binding assay in HeLa K cell extract, APC/C; conditions: Pra peptide clicked to azide agarose or magnetic beads, Western blot
T1 construct: endogenous in cells; host or cells: HeLa K cell extract
Description: (§1) For the protein transfer, the 0.45 μm Immobilon-FL PVDF membrane (Merck Millipore) was used. The membrane was activated in ethanol and then transferred to the Blotting buffer (50 mM SDS-MOPS, 50 mM Tris base, 0.1% SDS, 1 mM EDTA, 20% EtOH). The proteins were transferred using a wet transfer for 1.5 h at 400 mA. Subsequently, the membrane was incubated with the blocking solution, 10% milk in PBS-T (0.02% Tween-20 in PBS), for 1 h at room temperature. To detect proteins of the interest, the membrane was incubated with primary antibodies overnight at 4° C. Followed by washing the membrane 3 times 10 min with PBS-T and incubation with IRDye fluorescently labelled secondary antibodies for 1 h. Prior detection, the membrane was twice washed with PBS-T for 10 min and once with PBS for 10 min. The detection was done using the quantitative near-infrared scanning system Odyssey (LI-COR Biosciences).
HeLa K cell pellet was re-suspended in the extraction buffer (30 mM HEPES pH 7.5, 175 mM NaCl, 2.5 mM MgCl2, 0.25% NP40, 10% glycerol, 1 mM DTT) supplemented with 10 μM MG132 (VWR), 1 mM PMSF (Sigma-Aldrich), complete protease inhibitor cocktail (Roche) and PhosSTOP phosphatase inhibitors (Roche) and incubated for 20 min on ice, followed by centrifugation of cell debris for 15 min at 4° C. 16 100 g. In mean time, inhibitor molecules containing Propargyl (Pra) chemical group were covalently attached to the azide agarose or azide magnetic resin (Jena Bioscience) by Cu(I)-catalysed azide-alkyne cycloaddition reaction. Specifically, the inhibitor molecules were mixed with azide agarose resin in ratio 0.125 μmol inhibitor/25 μl agarose resin and azide magnetic resin in ratio 0.018 μmol inhibitor/20 μl magnetic resin. The reaction was catalysed by 1 mM CuSO4, 0.1 mM TBTA (Sigma-Aldrich) and 1 mM Sodium ascorbate and was performed on the rotating wheel for 30 min at room temperature in the volume of 1 ml. Subsequently, the resin was washed 5 times with the extraction buffer. The inhibitor-agarose resin was added to 1 mg of HeLa K cell extract and the inhibitor-magnetic resin was added to 0.5 mg of HeLa K cell extract followed by incubation at 4° C. for 2 h. Followed by washing the resin 5 times with the extraction buffer. Pull-down proteins were eluted by boiling for 15 min with 1×LDS sample buffer supplemented with 100 mM DTT (agarose resin) or by incubation with 1×LDS sample buffer for 10 min at room temperature followed by taking supernatant that was supplemented with 100 mM DTT and boiling it for 10 min. Samples were subjected to SDS PAGE and Western blot analysis.
(§2) HeLa K cell pellet was re-suspended in the extraction buffer (30 mM HEPES pH 7.5, 175 mM NaCl, 2.5 mM MgCl2, 0.25% NP40, 10% glycerol, 1 mM DTT supplied with complete protease inhibitor cocktail (Roche), PhosSTOP phosphatase inhibitors (Roche), 1 mM PMSF, 10 μM MG132) and incubated for 20 min on ice, followed by centrifugation to clear the lysate for 15 min at 4° C. 16,100 g. In the meantime, inhibitor molecules containing the propargyl-Gly-OH (Pra) chemical group were covalently attached to the azide agarose resin (Jena Bioscience) by Cu(I)-catalysed azide-alkyne cycloaddition reaction. Specifically, the inhibitor molecules were mixed with azide agarose resin in ratio 0.125 μmol inhibitor/20 μl agarose resin. The reaction was catalysed by 0.1 mM CuSO4, 0.5 mM THPTA (Sigma-Aldrich) and 5 mM Sodium ascorbate and was performed on the rotating wheel for 30 min at room temperature in the volume of 1 ml. […]

[2] = target: T2, RBX1 (Homo sapiens, UniProt P62877); assay: Pull-down binding assay in HeLa K cell extract, RBX1; conditions: azide beads, Western blot
T2 construct: endogenous in cells; host or cells: HeLa K cell extract
T2 sequence (P62877 whole entry): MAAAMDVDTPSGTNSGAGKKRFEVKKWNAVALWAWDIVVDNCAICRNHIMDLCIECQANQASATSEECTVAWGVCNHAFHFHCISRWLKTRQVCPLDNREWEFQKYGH
Description: as §1
HeLa K cell pellet was re-suspended in the extraction buffer (30 mM HEPES pH 7.5, 175 mM NaCl, 2.5 mM MgCl2, 0.25% NP40, 10% glycerol, 1 mM DTT) supplemented with 10 μM MG132 (VWR), 1 mM PMSF (Sigma-Aldrich), complete protease inhibitor cocktail (Roche) and PhosSTOP phosphatase inhibitors (Roche) and incubated for 20 min on ice, followed by centrifugation of cell debris for 15 min at 4° C. 16 100 g. […]

[3] = target: T3, BMI-1 (Homo sapiens, UniProt P35226); assay: Pull-down binding assay in HeLa K cell extract, BMI-1; conditions: azide agarose beads, Western blot
T3 construct: endogenous in cells; host or cells: HeLa K cell extract
T3 sequence (P35226 1-326): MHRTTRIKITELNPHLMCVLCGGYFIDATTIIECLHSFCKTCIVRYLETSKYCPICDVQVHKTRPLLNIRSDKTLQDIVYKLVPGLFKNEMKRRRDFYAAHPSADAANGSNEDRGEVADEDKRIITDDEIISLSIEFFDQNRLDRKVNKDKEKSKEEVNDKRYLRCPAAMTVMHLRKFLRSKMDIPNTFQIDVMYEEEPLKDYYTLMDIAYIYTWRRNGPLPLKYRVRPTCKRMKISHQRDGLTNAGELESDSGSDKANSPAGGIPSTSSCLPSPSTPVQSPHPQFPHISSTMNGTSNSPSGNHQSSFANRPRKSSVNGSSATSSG
Description: as §2, with “ml. Subsequently, the resin was washed five times with the extraction buffer. The inhibitor-agarose resin was added to 2 mg of HeLa K cell extract and incubated at 4° C. for 2 h. Afterwards, the resin was washed four times with the extraction buffer. Pull-down proteins were eluted by incubation with pre-warmed 1×LDS sample buffer for 10 min at room temperature followed by taking supernatant supplemented with 100 mM DTT and boiling for 10 min.” for “ml.”

[4] = target: T4, BRCA1 (Homo sapiens, UniProt P38398); assay: Pull-down binding assay in HeLa K cell extract, BRCA1; conditions: azide agarose beads, Western blot
T4 construct: endogenous in cells; host or cells: HeLa K cell extract
T4 sequence (P38398 whole entry): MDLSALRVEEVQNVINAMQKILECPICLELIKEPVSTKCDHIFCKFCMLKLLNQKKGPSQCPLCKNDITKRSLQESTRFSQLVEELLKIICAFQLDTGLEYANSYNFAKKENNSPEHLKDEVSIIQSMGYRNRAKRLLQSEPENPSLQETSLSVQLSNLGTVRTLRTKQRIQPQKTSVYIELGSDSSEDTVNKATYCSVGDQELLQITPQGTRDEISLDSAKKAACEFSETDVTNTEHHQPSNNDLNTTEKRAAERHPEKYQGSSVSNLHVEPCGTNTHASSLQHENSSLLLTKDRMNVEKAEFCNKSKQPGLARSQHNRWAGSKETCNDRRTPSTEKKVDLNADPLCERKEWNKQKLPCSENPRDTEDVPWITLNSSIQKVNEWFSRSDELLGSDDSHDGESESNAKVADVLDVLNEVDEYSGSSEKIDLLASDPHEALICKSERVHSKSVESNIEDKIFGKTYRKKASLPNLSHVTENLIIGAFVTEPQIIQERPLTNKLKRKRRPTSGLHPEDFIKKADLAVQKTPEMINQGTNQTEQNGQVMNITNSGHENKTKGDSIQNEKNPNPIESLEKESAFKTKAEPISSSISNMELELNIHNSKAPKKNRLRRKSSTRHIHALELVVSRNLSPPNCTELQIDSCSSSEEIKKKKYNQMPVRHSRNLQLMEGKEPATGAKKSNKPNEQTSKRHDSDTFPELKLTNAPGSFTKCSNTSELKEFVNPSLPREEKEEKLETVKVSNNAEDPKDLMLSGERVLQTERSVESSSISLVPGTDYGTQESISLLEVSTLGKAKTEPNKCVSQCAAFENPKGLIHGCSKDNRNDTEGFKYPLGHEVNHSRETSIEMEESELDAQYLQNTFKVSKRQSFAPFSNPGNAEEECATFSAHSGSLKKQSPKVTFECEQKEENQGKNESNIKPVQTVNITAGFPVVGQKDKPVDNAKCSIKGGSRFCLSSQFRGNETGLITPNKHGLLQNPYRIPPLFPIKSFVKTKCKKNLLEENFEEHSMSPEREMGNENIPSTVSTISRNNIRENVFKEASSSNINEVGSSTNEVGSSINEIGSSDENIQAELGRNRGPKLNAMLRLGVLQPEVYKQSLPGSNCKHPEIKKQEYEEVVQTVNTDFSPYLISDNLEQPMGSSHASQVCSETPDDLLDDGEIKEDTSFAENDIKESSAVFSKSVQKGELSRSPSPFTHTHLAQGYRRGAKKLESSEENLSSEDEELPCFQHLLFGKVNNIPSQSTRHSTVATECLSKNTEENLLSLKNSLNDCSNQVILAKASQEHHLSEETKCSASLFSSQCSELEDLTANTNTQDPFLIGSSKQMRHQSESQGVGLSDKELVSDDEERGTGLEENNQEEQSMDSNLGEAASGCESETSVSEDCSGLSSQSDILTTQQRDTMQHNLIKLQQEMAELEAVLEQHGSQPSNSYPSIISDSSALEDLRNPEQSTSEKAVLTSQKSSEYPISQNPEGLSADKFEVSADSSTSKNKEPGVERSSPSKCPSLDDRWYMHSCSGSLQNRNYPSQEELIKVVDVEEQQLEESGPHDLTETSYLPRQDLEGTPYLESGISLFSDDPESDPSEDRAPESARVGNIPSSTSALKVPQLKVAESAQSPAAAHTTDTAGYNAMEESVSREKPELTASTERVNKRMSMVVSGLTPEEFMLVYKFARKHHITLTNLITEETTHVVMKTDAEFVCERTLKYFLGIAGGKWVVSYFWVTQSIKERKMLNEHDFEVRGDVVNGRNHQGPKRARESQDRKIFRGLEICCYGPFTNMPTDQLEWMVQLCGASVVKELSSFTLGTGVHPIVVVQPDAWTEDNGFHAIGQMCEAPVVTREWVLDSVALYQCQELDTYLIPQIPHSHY
Description: as §2, with “ml. Subsequently, the resin was washed five times with the extraction buffer. The inhibitor-agarose resin was added to 2 mg of HeLa K cell extract and incubated at 4° C. for 2 h. Afterwards, the resin was washed four times with the extraction buffer. Pull-down proteins were eluted by incubation with pre-warmed 1×LDS sample buffer for 10 min at room temperature followed by taking supernatant supplemented with 100 mM DTT and boiling for 10 min.” for “ml.”

[5] = target: T5, c-CBL (Homo sapiens, UniProt P22681); assay: Pull-down binding assay in HeLa K cell extract, c-CBL; conditions: azide agarose beads, Western blot
T5 construct: endogenous in cells; host or cells: HeLa K cell extract
Description: as §2, with “ml. Subsequently, the resin was washed five times with the extraction buffer. The inhibitor-agarose resin was added to 2 mg of HeLa K cell extract and incubated at 4° C. for 2 h. Afterwards, the resin was washed four times with the extraction buffer. Pull-down proteins were eluted by incubation with pre-warmed 1×LDS sample buffer for 10 min at room temperature followed by taking supernatant supplemented with 100 mM DTT and boiling for 10 min.” for “ml.”

[6] = target: T6, c-IAP1 (Homo sapiens, UniProt Q13490); assay: Pull-down binding assay in HeLa K cell extract, c-IAP1; conditions: azide agarose beads, Western blot
T6 construct: endogenous in cells; host or cells: HeLa K cell extract
T6 sequence (Q13490 whole entry): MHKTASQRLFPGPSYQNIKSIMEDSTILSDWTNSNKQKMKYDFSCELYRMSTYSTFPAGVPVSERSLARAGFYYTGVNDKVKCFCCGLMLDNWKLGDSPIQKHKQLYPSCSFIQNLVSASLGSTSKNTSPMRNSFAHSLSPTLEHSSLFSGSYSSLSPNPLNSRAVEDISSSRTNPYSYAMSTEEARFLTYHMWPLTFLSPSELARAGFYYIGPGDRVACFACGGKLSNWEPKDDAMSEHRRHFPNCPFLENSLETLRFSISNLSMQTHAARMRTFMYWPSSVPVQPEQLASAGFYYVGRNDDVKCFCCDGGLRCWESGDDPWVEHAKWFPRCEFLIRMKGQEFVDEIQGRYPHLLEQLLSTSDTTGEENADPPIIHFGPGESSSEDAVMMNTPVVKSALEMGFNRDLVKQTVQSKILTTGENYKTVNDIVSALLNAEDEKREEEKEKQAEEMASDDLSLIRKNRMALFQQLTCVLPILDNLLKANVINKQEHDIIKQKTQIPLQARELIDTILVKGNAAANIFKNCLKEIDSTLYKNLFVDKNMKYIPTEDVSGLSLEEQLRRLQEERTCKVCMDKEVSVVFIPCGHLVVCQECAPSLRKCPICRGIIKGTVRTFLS
Description: as §2, with “ml. Subsequently, the resin was washed five times with the extraction buffer. The inhibitor-agarose resin was added to 2 mg of HeLa K cell extract and incubated at 4° C. for 2 h. Afterwards, the resin was washed four times with the extraction buffer. Pull-down proteins were eluted by incubation with pre-warmed 1×LDS sample buffer for 10 min at room temperature followed by taking supernatant supplemented with 100 mM DTT and boiling for 10 min.” for “ml.”

[7] = target: T7, MDM2 (Homo sapiens, UniProt Q00987); assay: Pull-down binding assay in HeLa K cell extract, MDM2; conditions: azide agarose beads, Western blot
T7 construct: endogenous in cells; host or cells: HeLa K cell extract
T7 sequence (Q00987 whole entry): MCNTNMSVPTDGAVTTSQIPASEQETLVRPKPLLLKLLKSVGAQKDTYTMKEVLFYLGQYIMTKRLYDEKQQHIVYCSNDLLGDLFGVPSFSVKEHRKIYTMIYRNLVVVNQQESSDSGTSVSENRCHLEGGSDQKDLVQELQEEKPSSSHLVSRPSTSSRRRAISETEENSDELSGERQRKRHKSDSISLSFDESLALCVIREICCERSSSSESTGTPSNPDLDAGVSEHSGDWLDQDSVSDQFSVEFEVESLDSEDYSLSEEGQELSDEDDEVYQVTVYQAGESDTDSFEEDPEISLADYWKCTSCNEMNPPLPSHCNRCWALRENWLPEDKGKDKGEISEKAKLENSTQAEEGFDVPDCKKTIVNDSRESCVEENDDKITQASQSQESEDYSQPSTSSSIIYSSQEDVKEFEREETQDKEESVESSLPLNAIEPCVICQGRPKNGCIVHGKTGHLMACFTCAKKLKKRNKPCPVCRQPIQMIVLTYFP
Description: as §2, with “ml. Subsequently, the resin was washed five times with the extraction buffer. The inhibitor-agarose resin was added to 2 mg of HeLa K cell extract and incubated at 4° C. for 2 h. Afterwards, the resin was washed four times with the extraction buffer. Pull-down proteins were eluted by incubation with pre-warmed 1×LDS sample buffer for 10 min at room temperature followed by taking supernatant supplemented with 100 mM DTT and boiling for 10 min.” for “ml.”

[8] = target: T8, TRAF2 (Homo sapiens, UniProt Q12933); assay: Pull-down binding assay in HeLa K cell extract, TRAF2; conditions: azide agarose beads, Western blot
T8 construct: endogenous in cells; host or cells: HeLa K cell extract
T8 sequence (Q12933 1-501): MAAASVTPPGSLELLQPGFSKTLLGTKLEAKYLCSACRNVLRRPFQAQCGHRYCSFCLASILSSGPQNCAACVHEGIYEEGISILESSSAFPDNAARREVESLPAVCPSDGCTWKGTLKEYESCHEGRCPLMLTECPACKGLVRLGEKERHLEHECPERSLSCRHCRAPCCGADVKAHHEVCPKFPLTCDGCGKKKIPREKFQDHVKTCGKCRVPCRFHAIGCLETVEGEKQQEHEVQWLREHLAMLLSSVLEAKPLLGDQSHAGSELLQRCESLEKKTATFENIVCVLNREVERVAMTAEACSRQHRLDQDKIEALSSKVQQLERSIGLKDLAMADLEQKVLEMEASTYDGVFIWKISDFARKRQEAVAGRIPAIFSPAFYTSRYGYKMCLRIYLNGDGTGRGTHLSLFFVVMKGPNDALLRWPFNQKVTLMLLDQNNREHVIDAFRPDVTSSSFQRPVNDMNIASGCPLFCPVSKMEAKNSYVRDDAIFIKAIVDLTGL
Description: as §2, with “ml. Subsequently, the resin was washed five times with the extraction buffer. The inhibitor-agarose resin was added to 2 mg of HeLa K cell extract and incubated at 4° C. for 2 h. Afterwards, the resin was washed four times with the extraction buffer. Pull-down proteins were eluted by incubation with pre-warmed 1×LDS sample buffer for 10 min at room temperature followed by taking supernatant supplemented with 100 mM DTT and boiling for 10 min.” for “ml.”

Ac-cyclo(3,12)-PraRCHWGPRTFWCR-NH2 (Ac-[Pra]RCHWGPRTFWCR-NH2; disulfide 3-12; SMILES C#CC[C@H](NC(C)=O)C(=O)N[C@@H](CCCNC(=N)N)C(=O)N[C@H]1CSSC[C@@H](C(=O)N[C@@H](CCCNC(=N)N)C(N)=O)NC(=O)[C@H](Cc2c[nH]c3ccccc23)NC(=O)[C@H](Cc2ccccc2)NC(=O)[C@H]([C@@H](C)O)NC(=O)[C@H](CCCNC(=N)N)NC(=O)[C@@H]2CCCN2C(=O)CNC(=O)[C@H](Cc2c[nH]c3ccccc23)NC(=O)[C@H](Cc2c[nH]cn2)NC1=O) [G1-3Pra]
binds: binding to the APC/C (pull-down) [1] | binding to RBX1 (pull-down) [2] | binding to BMI-1 (pull-down) [3] | binding to BRCA1 (pull-down) [4] | binding to c-CBL (pull-down) [5] | binding to c-IAP1 (pull-down) [6] | binding to MDM2 (pull-down) [7] | binding to TRAF2 (pull-down) [8]

Source: patent publication US20230391828A1, “REGULATORS OF CELL DIVISION” (TECHNISCHE UNIVERSITÄT DRESDEN, priority 2020, published 2023)
